Assay results published in patent publication US5744166A, “Drug delivery compositions” (Danbiosyst UK Limited, priority 1989, dated 1998).

Experiments:
[1] = Intranasal absorption of insulin solutions in anaesthetised rats: blood glucose; type: in vivo, rat (male Wistar); conditions: phosphate buffer pH 7.3; for Blood Glucose Levels: 120 minutes after intranasal administration, 16.7 IU/kg insulin, level at administration about 3.5 to 4.0
Description: A rat in vivo experimental model, modified from that originally described by Hirai et al., Int. […] Male Wistar rats (Bantin and Kingman) of approximate weight 200-250 g, fasted overnight for about 20 hours, are anesthetized by i.p. injection of 80 mg/kg pentobarbitone sodium (60 mg/ml Sagatal™, May and Baker) with further i.p. injections of 0.05 ml when necessary to maintain a suitable level of anaesthesia. The rats are tracheotomized, the esophagus sealed and the carotid artery and jugular vein cannulated.
The DEAE-dextran used in these experiments has a molecular weight of 500,000.
This will give the same end solutions. […] An insulin solution containing the Laureth-9 enhancer system was prepared in a similar way.
A volume of 20 μl was administered.
Blood samples of 0.2 ml were collected in Fluoride oxalate tubes from the carotid artery at 10 and 5 min. prior to the insulin administration and at 5, 15, 30, 45, 60, 90, 120, 180, 240 and 300 min. post-administration. The samples were kept for a short time on crushed ice until analyzed on a Yellow Springs 23 AM glucose analyser by the glucose oxidase method.

[2] = Effect of pH on insulin/DEAE-dextran solutions (pH and appearance); type: physicochemical
Description: Solutions containing DEAE-Dextran 1% w/v and Na-Insulin 167 IU/ml were prepared, separately and combined, in phosphate buffer (pH 7.3) and their pH measured using a Gallenkamp pH stick. The appearance of each solution was noted. The effect of addition of 1M sodium hydroxide solution (NaOH) or 0.1M hydrochloric acid (HCl) was determined.

Insulin alone: semisynthetic human Na-insulin, 167 IU/ml in phosphate buffer
Blood Glucose Levels [1]: ~5.1 mmol/L
Blood Glucose Levels ([1]; listed as insulin solution alone): about 5 mmol/l
effect on blood glucose level (in words) ([1]; intranasal): does not significantly lower the blood glucose level
pH at which solution became turbid on addition of acid ([2]; 0.1M HCl): 6.65
pH at which solution cleared / was clear on addition of acid ([2]; 0.1M HCl): 4.14
appearance on addition of 1.0M NaOH ([2]; 1.0M NaOH): no effect on solution appearance which remained clear
pH of solution ([2]; DEAE-dextran 1% w/v and/or Na-insulin 167 IU/ml in phosphate buffer (pH 7.3)): 7.38
appearance of solution ([2]; as prepared in phosphate buffer, no acid or base added): clear
